Measurements as given in US20220064286A1 (Genentech, published 2022).

T1: mouse TIGIT-His (mouse, UniProt P86176 29-148, limits assumed)
T1 sequence (looked up): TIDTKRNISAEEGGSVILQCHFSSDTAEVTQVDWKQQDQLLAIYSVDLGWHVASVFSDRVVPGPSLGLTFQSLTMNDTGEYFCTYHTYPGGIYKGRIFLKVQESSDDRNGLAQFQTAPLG

T2: human TIGIT-AviFlag-biotin (human, UniProt Q495A1 22-141, biotin)
T2 sequence: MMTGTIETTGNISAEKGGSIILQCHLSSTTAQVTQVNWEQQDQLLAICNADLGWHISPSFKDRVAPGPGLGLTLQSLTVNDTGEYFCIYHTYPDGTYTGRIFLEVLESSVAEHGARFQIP

T3: mu TIGIT (target named for 10A7 in the heads of Tables 6 and 7) (mu (mouse), UniProt P86176 29-249, limits assumed)
T3 construct: Only the column head says mu TIGIT; the text describes no mouse TIGIT cells
T3 sequence (looked up): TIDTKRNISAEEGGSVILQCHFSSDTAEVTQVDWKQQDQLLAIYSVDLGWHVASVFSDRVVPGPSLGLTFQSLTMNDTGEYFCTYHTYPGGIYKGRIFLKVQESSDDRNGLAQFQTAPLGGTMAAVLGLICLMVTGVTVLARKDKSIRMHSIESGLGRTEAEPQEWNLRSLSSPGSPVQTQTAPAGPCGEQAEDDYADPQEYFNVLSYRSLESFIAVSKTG


Experiments:
mouse TIGIT-His = target: T1, mouse TIGIT-His; test: Block ELISA Mouse PVR-Fc:TIGIT-His (blocked ligand mouse PVR-Fc)
Method: (§1) To test for the ability of the clones to block the TIGIT-PVR interaction, a blocking ELISA assay was used. Briefly, recombinant human PVR-Fc fusion protein, cynomolgus monkey PVR-Fc fusion protein, or mouse PVR-Fc fusion protein was coated at 4 μg/ml at 25 μl/well in phosphate-buffered saline (PBS, pH 7.0) onto 384-well Maxisorp microtiter plates (NUNC, Denmark) and incubated overnight at 4° C. The coating solution was then discarded and the plate was blocked using 0.5% bovine serum albumin (BSA) in PBS at 80 μl/well and incubated with gentle agitation for 1 hour. Titration curves of anti-TIGIT and Fab isotype control antibodies were diluted in assay buffer (PBS, 0.5% BSA, 0.05% Tween 20) using 12 serial 2.5-fold dilutions (40000-1.7 ng/mL). […] The plate was then washed 6× with wash buffer and bound human TIGIT-AviFlag-biotin, cyno TIGIT-AviFlag-biotin, or mouse TIGIT-His was detected by adding 25 μl/well of horseradish peroxidase-conjugated streptavidin (1:10000, Amersham, UK) or horseradish peroxidase-conjugated mouse anti-His (1:2500, Qiagen, Germany) diluted in assay buffer. […] Absorbance was read at 450 nm on a […] ASCENT® microtiter plate reader (Thermo Labsystems, Helsinki, Finland). Fit curves were plotted from the resulting optical density values from the ELISA plates and IC50s were calculated using Genedata Screener software (Genedata, Switzerland).

[1] = target: T4, cynomolgus TIGIT-AviFlag-biotin (cynomolgus monkey, UniProt A0A7N9I9V4 89-209, biotin); test: Block ELISA Cyno PVR-Fc:Bio-TIGIT-AviFlag (blocked ligand cyno PVR-Fc)
T4 construct: also called cyno TIGIT-AviFlag-biotin
Method: as §1

[2] = target: T2, human TIGIT-AviFlag-biotin; test: Block ELISA Human PVR-Fc:Bio-TIGIT-AviFlag (blocked ligand human PVR-Fc)
Method: as §1

[3] = target: T3, mu TIGIT (target named for 10A7 in the …); test: TR-FRET, TIGIT with ST-CD226 on CHO cells; competitor CD226

T4 sequence (A0A7N9I9V4 entry or part of it): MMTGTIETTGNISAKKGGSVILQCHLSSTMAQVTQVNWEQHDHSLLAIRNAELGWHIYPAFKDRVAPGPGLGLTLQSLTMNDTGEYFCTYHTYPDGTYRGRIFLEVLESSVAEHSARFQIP

| IC50 (mouse TIGIT-His) [nM] | IC50 [1] [nM] | IC50 [2] [nM] | IC50 [3] [nM] | Binder |
| --- | --- | --- | --- | --- |
| > 133 | 2.6 | 6.9 | – | 4.1D3.Q1E (antibody, V domains shown) VH: EVQLQQSGPGLVKPSQTLSLTCAISGDSVSSNSAAWNWIRQSPSRGLEWLGKTYYRFKWYSDYAVSVKGRITINPDTSKNQFSLQLNSVTPEDTAVFYCTRESTTYDLLAGPFDYWGQGTLVTVSS VL: not shown |
| – | – | – | 17.6 | 10A7 (antibody, V domains shown) VH: EVQLVESGGGLTQPGKSLKLSCEASGFTFSSFTMHWVRQSPGKGLEWVAFIRSGSGIVFYADAVRGRFTISRDNAKNLLFLQMNDLKSEDTAMYYCARRPLGHNTFDSWGQGTLVTVSS VL: DIVMTQSPSSLAVSPGEKVTMTCKSSQSLYYSGVKENLLAWYQQKPGQSPKLLIYYASIRFTGVPDRFTGSGSGTDYTLTITSVQAEDMGQYFCQQGINNPLTFGDGTKLEIKR |
